Reference: article PMC6078998

Key:
[1] = target: recombinant human HIRA(661–1017) (human) (UniProt P54198); assay: AUC; sedimentation velocity, c(S) model in SEDFIT, 141,995×g; buffer with 300 mM NaCl, and also with 150 mM NaCl with consistent values
[2] = target: recombinant human HIRA(661–1017) (human) (UniProt P54198); assay: AUC; sedimentation equilibrium of the HIRA(661–1017)–CABIN1 FL complex isolated from a size-exclusion peak, slightly lower rotor speeds; 4 °C, 20 mM Tris pH 8.0, 300 mM NaCl, 1 mM TCEP; SEDPHAT ABBB model (A the HIRA trimer, B a CABIN1 monomer), apparent constants

Sequence of recombinant human HIRA(661–1017) (human) (P54198 661-1017): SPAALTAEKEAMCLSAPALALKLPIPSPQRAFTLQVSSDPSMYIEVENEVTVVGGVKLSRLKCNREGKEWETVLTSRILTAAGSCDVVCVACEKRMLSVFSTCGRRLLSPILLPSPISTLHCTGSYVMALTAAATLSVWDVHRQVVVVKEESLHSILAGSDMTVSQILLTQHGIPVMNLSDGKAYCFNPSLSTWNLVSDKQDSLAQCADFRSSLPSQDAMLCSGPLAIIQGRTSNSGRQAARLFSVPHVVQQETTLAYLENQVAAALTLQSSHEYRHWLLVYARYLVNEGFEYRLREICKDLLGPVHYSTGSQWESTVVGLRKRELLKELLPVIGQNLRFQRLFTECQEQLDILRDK
Sequence of CABIN1 full length (FL), recombinant, Q9Y6J0 1-2220 (natural protein) (Q9Y6J0 whole entry): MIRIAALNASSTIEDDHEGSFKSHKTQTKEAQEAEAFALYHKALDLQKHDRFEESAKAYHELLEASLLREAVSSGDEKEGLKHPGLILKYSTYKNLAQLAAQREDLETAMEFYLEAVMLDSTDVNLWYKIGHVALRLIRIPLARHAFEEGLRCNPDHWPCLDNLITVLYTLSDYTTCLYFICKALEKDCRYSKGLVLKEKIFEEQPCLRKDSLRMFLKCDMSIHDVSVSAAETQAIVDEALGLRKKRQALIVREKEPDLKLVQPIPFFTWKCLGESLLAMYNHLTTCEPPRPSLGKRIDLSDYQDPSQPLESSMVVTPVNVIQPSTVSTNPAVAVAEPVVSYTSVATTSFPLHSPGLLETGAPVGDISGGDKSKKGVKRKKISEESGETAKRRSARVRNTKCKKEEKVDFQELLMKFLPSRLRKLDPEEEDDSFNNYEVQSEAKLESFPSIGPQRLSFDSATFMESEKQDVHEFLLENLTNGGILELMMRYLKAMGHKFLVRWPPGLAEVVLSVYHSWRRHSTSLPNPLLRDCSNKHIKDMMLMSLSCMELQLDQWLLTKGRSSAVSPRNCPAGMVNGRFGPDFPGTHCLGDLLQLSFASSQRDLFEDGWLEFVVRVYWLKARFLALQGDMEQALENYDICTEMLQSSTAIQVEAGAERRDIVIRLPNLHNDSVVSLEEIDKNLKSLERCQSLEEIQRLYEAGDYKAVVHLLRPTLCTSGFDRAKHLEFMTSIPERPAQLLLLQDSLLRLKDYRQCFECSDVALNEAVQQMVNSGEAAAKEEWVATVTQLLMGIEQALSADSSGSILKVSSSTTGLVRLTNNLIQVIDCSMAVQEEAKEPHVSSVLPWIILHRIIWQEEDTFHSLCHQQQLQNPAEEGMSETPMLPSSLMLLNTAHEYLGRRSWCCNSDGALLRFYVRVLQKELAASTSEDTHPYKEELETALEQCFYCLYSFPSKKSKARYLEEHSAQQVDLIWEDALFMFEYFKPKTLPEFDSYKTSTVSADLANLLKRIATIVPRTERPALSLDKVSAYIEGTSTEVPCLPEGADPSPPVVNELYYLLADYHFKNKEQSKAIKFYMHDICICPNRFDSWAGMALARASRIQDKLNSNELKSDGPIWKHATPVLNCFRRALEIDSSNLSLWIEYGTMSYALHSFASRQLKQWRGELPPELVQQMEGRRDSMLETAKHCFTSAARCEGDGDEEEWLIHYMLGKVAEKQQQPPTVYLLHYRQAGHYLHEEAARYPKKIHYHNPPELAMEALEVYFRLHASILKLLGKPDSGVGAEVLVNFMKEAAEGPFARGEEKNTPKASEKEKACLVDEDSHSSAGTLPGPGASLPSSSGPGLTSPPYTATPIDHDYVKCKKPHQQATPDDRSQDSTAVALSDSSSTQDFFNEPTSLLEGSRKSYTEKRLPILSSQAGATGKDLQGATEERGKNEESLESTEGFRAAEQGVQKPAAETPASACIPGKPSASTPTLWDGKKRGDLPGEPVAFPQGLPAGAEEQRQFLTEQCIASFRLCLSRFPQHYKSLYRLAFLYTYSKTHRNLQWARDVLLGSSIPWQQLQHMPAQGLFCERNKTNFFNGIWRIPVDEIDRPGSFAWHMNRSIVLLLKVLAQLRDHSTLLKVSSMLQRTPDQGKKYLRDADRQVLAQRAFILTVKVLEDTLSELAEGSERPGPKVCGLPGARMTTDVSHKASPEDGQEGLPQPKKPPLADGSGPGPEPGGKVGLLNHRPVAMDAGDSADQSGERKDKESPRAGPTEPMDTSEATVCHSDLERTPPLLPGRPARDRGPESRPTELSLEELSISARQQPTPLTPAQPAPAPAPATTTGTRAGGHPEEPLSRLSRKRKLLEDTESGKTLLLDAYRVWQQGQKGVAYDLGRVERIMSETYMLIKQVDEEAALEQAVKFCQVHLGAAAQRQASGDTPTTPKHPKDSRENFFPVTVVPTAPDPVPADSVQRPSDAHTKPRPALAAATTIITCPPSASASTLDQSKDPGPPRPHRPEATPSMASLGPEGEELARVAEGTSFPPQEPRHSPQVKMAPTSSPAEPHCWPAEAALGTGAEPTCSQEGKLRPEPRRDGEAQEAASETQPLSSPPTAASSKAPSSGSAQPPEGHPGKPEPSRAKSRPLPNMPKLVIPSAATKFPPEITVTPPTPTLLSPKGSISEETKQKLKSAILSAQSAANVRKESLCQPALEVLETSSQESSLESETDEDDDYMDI

Q: “CABIN1 full length (FL), recombinant, Q9Y6J0 1-2220 (natural protein)” was tested. Which stoichiometry N (CABIN1 per HIRA trimer) [1] did it give?
A: 2

Q: And the Kd, third binding event [2]?
A: 10 µM

Q: What about the apparent Kd, first two binding events [2] of the same substance?
A: < 1 nM

Q: What about the stoichiometry N (CABIN1 per HIRA trimer) [2] of the same substance?
A: 2
